Patent US20260185137A1 (University of Texas, published 2026)

Tests used:
[1] = target: the molecule itself; assay: 15N-TROSY HSQC NMR (self-association of the RING domain); sample concentration is not printed on the sheet
Experimental: NMR spectroscopy. All NMR experiments were performed in 50 mM Sodium Phosphate (pH 7.5), 150 mM NaCl, 1 mM TCEP, 10% (v/v) D₂O, 0.04% (w/v) NaN₃, and the data collected at 298K on a Bruker Avance 700-MHz spectrometer equipped with a cryoprobe. Backbone assignments were carried out using standard TROSY triple resonance NMR experiments (HNCO, HN(CA)CO, HN(CO)CA, HNCA, HNCACB, and HN(CO)CACB). Protein concentrations for each experiment are shown in the corresponding figures or noted in figure legends. The NMR data were processed using NMRPipe and spectra evaluated using NMRFAM-Sparky.

[2] = target: the molecule itself; assay: sedimentation equilibrium analytical ultracentrifugation, monomer-dimer self-association model
Experimental: Analytical Ultracentrifugation. Sedimentation velocity experiments were performed with a Beckman Optima XL-I analytical ultracentrifuge (Beckman Coulter, Indianapolis, IN) equipped with a 4-hole AnTi-60 rotor and 2-channel centerpiece cells. Samples were in a buffer containing 50 mM Tris (pH 7.5), 150 mM NaCl, and 1 mM TCEP. Sedimentation velocity experiments were carried out at 20° C. and data collection performed in the intensity mode at 280 nm. […] All c(S) distributions were calculated with fitted frictional ratios (f/f₀) and meniscus positions were all fitted with a maximum entropy regularization cutoff of 0.95. Sedimentation equilibrium experiments were carried out using six-channel centerpieces, each chamber containing 110 μL samples. Equilibrium experiments were conducted at 20° C. and collection of data performed in the intensity mode at 280 nm and 230 nm. […] Equilibrium distributions were fitted to a monomer-dimer self-association model.

Row | Protein | binding result [1] | Kd [2]
1 | R1-I77R, RING domain construct of rhesus monkey TRIM5alpha with the I77R mutation (enzyme, UniProt Q0PF16 2-90, looked up, range 2-90; Tags were removed by TEV protease) ASGILLNVKEEVTCPICLELLTEPLSLHCGHSFCQACITANHKKSMLYKEGERSCPVCRISYQPENIQPNRHVANRVEKLREVKLSPEE | no binding | –
2 | R1-WT, monomeric RING domain construct of rhesus monkey TRIM5alpha (enzyme, UniProt Q0PF16 2-90, looked up, range 2-90; Expressed with N-terminal 6His-GB1-TEV tags that were removed by TEV protease; also called isolated RING monomer) ASGILLNVKEEVTCPICLELLTEPLSLHCGHSFCQACITANHKKSMLYKEGERSCPVCRISYQPENIQPNRHVANIVEKLREVKLSPEE | – | ~60 µM
